Laboratory results taken from article PMC11686323 (Communications Biology, 2024).

Target: the molecule itself
Assay: cryo-EM structure

B1: phosphoglucomutase GlmM of Lactococcus lactis (enzyme, UniProt A2RIG0 1-452, looked up)
chain: MGKYFGTDGVRGEANVELTPEMAFKLGRFGGYVLSQHELETPKVYVGRDTRISGQMLASSLISGLLSVGIEVYDLGVIATPGVAYLVKKDGASAGVMISASHNPALDNGIKFFGGDGYKLEDEKELEIEALIDAKEDTLPRPSAQGLGMLHDYIEGVRKYQAFLKTTAEGDFEGYNVVLDTANGASYTSARAVFADLKANLTVIGENPDGLNINVKVGSTHPEAMAKKVVETGSDLGLAFDGDADRLIAVDENGEIVDGDKIMFIVGKYLLEQGKLAQDTLVTTVMSNLGFHLALEEAGINSVITAVGDRYVVEEMKKNNYNFGGEQSGHMIFLDYNTTGDGQLSAIQLLKVMRETGKTLSELASEVTIYPQKLVNVRVKDNAAKKSAMDVPAIQKVISEMETSMNGKGRILVRPSGTEPLLRVMAEAPTHEQVDHVVDTIVEVVEEEIGVK
  stoichiometry N: 2
